This note sets out measurements from patent publication US20220363769A1 (SORRISO PHARMACEUTICALS, published 2022).

Where a chain is given by its changes, count along the chain named. In names and notes the source's numbering stands.

Test [1] deals with T1, recombinant human IL-7Rα-His6-Fc (human, UniProt P16871 21-239).
T1 construct: also called hIL-7R; not shown: His6 tag; Fc (captured by anti-human IgG Fc)
T1 chain: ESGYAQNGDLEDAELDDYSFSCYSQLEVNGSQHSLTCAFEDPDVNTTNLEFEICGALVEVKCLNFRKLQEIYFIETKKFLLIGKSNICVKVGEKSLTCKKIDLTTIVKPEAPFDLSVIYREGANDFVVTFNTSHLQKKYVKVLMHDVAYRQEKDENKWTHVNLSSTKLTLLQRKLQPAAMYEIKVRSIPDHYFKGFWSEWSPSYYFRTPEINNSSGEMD
The test can be described thus: IL-7/IL-7Rα-His6-Fc ELISA; inhibition of IL-7 binding to IL-7R.

Test [2] has as its target T1, recombinant human IL-7Rα-His6-Fc. Nature of the test: Biacore; IL-7Rα-His6-Fc captured by anti-human IgG Fc, ICVD flowed over.
For test [3] the target is unchanged. Nature of the test: IL-7/IL-7R neutralisation ELISA; inhibition of IL-7 binding to IL-7R.
The target in another test is T2, cynomolgus monkey IL-7Rα (cynomolgus monkey, UniProt Q38IC7 21-239, limits assumed).
T2 construct: also called cynomolgus IL-7Rα
T2 sequence: T1 chain with N64S, E93G, T159M, K174N, A178E, S215P
Nature of the test: competition ELISA: ID-A40U premixed with serially diluted soluble IL-7R, then added to plate-coated human IL-7Rα-His6-Fc; bound ICVD detected. As for the experimental part: (§1) 96-well plates were coated with 0.5 μg/mL recombinant human IL-7Rα His₆-Fc +5 μg/mL BSA and then blocked. 0.5 nM of ICVD was mixed 1:1 with the test compounds of choice serially diluted in 1% BSA, then incubated for 30 minutes to allow binding before adding to the IL-7Rα coated plates. Following 2 hours incubation, bound ICVD was detected with 50 uL/well 1/20000 anti-FLAG-HRP Goat antibody (GeneTex, GTX21238), and the level of neutralisation of ICVD-IL-7Rα binding by the test compounds was determined.

In the next test the target is T3, murine IL-7Rα (murine, UniProt P16872 21-239).
T3 construct: also called mouse IL-7R
T3 sequence (looked up): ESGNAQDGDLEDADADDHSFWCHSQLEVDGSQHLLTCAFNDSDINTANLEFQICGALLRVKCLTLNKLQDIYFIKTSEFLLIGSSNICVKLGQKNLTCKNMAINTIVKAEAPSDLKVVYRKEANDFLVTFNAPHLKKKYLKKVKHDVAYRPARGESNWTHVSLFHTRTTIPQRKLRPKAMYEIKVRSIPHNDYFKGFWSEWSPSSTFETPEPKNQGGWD
The test is described as above. How it is done:
as §1

The target of the next test is T4, IL-9R (human, UniProt Q01113 41-270, limits assumed).
T4 sequence (looked up): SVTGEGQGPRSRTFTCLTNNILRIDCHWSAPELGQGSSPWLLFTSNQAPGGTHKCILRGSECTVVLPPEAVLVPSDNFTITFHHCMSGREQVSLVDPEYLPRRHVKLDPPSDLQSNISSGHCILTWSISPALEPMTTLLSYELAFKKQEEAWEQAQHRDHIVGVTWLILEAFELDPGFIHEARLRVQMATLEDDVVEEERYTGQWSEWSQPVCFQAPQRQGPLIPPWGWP
Nature of the test: competition ELISA: ID-A40U premixed with serially diluted soluble receptor, then added to plate-coated human IL-7Rα; bound ICVD detected [left panel]. How it is done:
as §1

A further test has as its target T5, TNFR-2 (human, UniProt P20333 23-257).
T5 sequence (looked up): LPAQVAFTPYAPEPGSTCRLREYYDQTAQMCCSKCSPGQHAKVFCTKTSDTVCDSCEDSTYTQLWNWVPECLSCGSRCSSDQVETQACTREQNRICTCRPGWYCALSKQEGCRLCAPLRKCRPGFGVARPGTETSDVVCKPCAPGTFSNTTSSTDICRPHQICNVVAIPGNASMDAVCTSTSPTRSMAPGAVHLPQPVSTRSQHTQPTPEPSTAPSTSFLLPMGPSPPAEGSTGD
The test is described as above. As for the experimental part: as §1

In the next test the target is T6, IL-6R (human, UniProt P08887 20-358, limits assumed).
T6 sequence (looked up): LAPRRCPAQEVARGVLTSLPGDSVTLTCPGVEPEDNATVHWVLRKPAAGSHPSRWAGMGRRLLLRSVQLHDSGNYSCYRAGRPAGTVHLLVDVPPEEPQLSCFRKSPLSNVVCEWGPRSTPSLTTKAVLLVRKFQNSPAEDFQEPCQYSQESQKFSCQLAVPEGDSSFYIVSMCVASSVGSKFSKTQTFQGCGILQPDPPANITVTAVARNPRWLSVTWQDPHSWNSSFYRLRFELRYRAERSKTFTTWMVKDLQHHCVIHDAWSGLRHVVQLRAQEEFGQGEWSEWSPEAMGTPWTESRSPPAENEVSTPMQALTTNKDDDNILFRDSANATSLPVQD
The description is as above. As for the experimental part:
as §1

The target in the next test is T7, human IL-12Rβ1 (human, UniProt P42701 24-545, limits assumed).
T7 construct: also called hIL-12Rβ1; IL-12Rα1 (as printed in the result sentence)
The test can be described thus: competition ELISA: ID-A40U premixed with serially diluted soluble receptor, then added to plate-coated human IL-7Rα; bound ICVD detected [right panel]. As for the experimental part: as §1

For the next test, the target named is IL-21R (human, UniProt Q9HBE5 20-232, limits assumed). The description is as above. As for the experimental part:
as §1

Sequence of IL-21R (Q9HBE5 20-232 limits assumed): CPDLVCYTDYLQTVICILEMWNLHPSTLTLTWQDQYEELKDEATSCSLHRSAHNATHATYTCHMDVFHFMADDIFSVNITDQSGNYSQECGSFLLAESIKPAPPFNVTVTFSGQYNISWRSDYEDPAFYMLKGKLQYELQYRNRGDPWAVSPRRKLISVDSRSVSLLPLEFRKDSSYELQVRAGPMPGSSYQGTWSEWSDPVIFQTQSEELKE

B1: ID-A40U (VHH)
VHH: EVQLVESGGGLVQAGGSLRLSCESSISTFSSDAMGWFRQAPGKEREFLAAIGWSGAVTHYSDSVKGRFTISRDNAKNTVYLQMNSLRAEDTGRYYCAEDYDTDVWQYWGQGTQVTVSS
notes: V7R-2E9 with Q65K, K87R, S88A; produced in E. coli; also called A40U-F/H; not shown: Flag-His6 tag
As to B1, the 50% effective concentration (EC50) in [1] and in test [3] was 0.544 nM throughout. In addition, in test [2], the Kd worked out at 0.078 nM. For the same molecule, the binding result is listed as “binds” with cynomolgus monkey IL-7Rα; “no binding (tested: 100 ng/mL)” with murine IL-7Rα; “no binding (tested: 100 ng/mL)” with IL-9R; “no binding (tested: 100 ng/mL)” with TNFR-2; “no binding (tested: 100 ng/mL)” with IL-6R; “no binding (tested: 100 ng/mL)” in the test with human IL-12Rβ1. The binding result in the test with IL-21R is given as “no binding (tested: 100 ng/mL)”.
